Measured values published in patent US20170283470A1 (OXFORD NANOPORE TECHNOLOGIES, published 2017).

B1: CsgG (wild-type E. coli CsgG, outer membrane localized, C-terminally StrepII-tagged, membrane-extracted nonameric pore) (other)
chain: CLTAPPKEAARPTLMPRAQSYKDLTHLPAPTGKIFVSVYNIQDETGQFKPYPASNFSTAVPQSATAMLVTALKDSRWFIPLERQGLQNLLNERKIIRAAQENGTVAINNRIPLQSLTAANIMVEGSIIGYESNVKSGGVGARYFGIGADTQYQLDQIAVNLRVVNVSTGEILSSVNTSKTILSYEVQAGVFRFIDYQRLLEGEVGYTSNEPVMLCLMSAIETGVIFLINDGIDRGLWDLQNKAERQNDILVKYRHMSVPPES
modifications: N-terminal Cys of the mature protein triacylated (lipidated), as described in paragraph 145
notes: Produced from pPG1 in E. coli BL21(DE3) and extracted from outer membranes with detergent; It was amphipol A8-35-solubilized for native PAGE and EM, and reconstituted in planar phospholipid bilayers for single-channel recordings; also called CsgG channel; CsgG pore; not shown: C-terminal StrepII tag of construct pPG1
B2: CsgE (periplasmic accessory factor CsgE, his-tagged, CsgE-his) (other)
chain: VEVEVPGLLTDHTVSSIGHDFYRAFSDKWESDYTGNLTINERPSARWGSWITITVNQDVIFQTFLFPLKRDFEKTVVFALIQTEEALNRRQINQALLSTGDLAHDEF
notes: Added as purified monomeric CsgE; also called specificity factor CsgE; not shown: his tag (CsgE-his from pNH27)

Columns and labels:
[1] = molecular target: the molecule itself; assay: crystal structure, size-exclusion chromatography, EM and single-channel recordings
[2] = molecular target: B1; assay: SYPRO orange fluorescence of CsgE and CsgG bands on SDS-PAGE of the complex band cut from native PAGE

Binder	binding result [1]	CsgG/CsgE ratio (stoichiometry of the complex) [2]
B1	binds	–
B2	–	0.97
